Results on two substances are retold here after paper PMC5564220.

Test [1] addresses Rvb1/his-Rvb2 complex (S. cerevisiae) (UniProt Q03940). Put plainly: native MS.
The target in test [2] is Rvb1ΔDII/Rvb2ΔDII complex (S. cerevisiae) (UniProt Q03940). Put plainly: native MS.

Sequence of Rvb1ΔDII/Rvb2ΔDII complex (Q03940 whole entry, stated change not applied): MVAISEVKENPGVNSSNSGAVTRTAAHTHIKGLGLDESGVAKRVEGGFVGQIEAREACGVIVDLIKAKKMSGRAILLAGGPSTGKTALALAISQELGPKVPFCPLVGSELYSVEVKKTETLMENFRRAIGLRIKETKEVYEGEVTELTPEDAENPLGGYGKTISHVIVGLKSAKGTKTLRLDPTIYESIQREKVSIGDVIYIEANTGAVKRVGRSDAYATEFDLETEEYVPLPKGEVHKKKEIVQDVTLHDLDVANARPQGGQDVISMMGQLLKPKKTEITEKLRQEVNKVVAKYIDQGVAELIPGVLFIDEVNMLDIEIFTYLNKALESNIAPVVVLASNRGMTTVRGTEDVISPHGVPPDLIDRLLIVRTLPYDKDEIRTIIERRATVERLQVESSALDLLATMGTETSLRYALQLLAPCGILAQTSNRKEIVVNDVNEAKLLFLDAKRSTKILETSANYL
Sequence of Rvb1ΔDII/Rvb2ΔDII complex (Q12464 whole entry, stated change not applied): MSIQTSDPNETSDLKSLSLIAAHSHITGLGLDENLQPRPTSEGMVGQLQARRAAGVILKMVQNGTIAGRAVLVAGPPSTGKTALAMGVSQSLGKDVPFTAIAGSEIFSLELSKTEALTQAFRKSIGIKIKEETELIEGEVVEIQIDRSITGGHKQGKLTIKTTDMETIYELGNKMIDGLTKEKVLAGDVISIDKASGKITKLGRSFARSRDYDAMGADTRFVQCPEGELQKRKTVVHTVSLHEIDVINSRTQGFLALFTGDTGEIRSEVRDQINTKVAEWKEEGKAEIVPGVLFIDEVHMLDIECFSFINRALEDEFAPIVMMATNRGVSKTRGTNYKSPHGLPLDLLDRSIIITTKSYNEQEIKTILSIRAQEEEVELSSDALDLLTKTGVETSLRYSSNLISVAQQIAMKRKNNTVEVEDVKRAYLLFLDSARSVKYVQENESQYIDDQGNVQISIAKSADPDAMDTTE

As for “Rvb1/his-Rvb2 complex (from UniProt Q03940 1-463; Q12464 1-471)”, in test [1], the percent of hexamers in the population is 0% and the percent of the dodecamer dissociated into hexamers is 14%.
Regarding “Rvb1ΔDII/Rvb2ΔDII complex (from UniProt Q03940 1-463; Q12464 1-471)”, the percent of dodecamer in the population in test [2] was 3%.
